The nature of the series: label from the status in PepcDB records.
For “MLLFWVEFIGTFIGLFISAELIAKGADELEEVLGQGITGGILLGFITALPETIFVIIASLGGSLDVAFGSAIGGNILLFTVGAGLVGIVYFWKWKNNLVMDQEYQVENKFLIISTVALVLITLYSKLNVIAGVCLILIYVYYVIYRLRKFKRDKPIAKKEVDYVKISIFMVVGAILLIILSHYFVEQLDQISLSFGIPAVWISLVLSPIAGELEEKISAFRLITLSKKGGSLSLLSFVGSKIENNTVLLGIIGLFGDYSLRPVIPEMVSLILVNVSVLRVLFDRKLTVLESSLLIIAYAVIIIALYYL”, the protein production entry is recorded as “failed”.

As for “MMGGKGGFYRHLAVEGNFGGTTQSLAVCSTIGANSVKMPTSFLYTPHRQAEFMALLQISEPGMSASPHRHRLAAGIDLGTTNSLVATVRSGSAACLPDAEGRVTLPSVVRYLENGGIEVGKTALSAQKTDPLNTVSSAKRLIGRTLADLHQNTHYLPYRFGDNQRVIELHTRQGVKTPVEVSAEILKTLKSRAEETLGGDLVGVVITVPAYFDDAQRQATKDAARLAGLNVLRLLNEPTAAAIAYGLDNASEGTFVVYDLGGGTFDVSVLQLTKGLFEVKATGGNSALGGDDFDHRLFCRLLEQNGLSQLNEQDSQLLLSLVRAAKEQLTTQTEARIQATLSDGMAIDTSISRAEFHNLTQHLVMKTLEPVTQALKDAGVGKNEVKGVIMVGGSTRMLHVQQAVATFFGQTPLNNLNPDEVVALGAAIQANVLAGNKTDGEWLLLDVTPLSLGLETYGGLAEKIIPRNSTIPTARAQDFTTFKDGQTAMTIHVVQGERELVSDCRSLAKFTLRGIPPMAAGAARIRVTFQIDADGLLSVSAQEQSTGVQAQIEVKPSYGLDDGAITRMLKDSMDNAAEDMAARARAEAVVEAESLTDAVNAALELDSDLLDAKELQQIRQGIADLQGRLKDGKAEDIRSAVAKLSRSTDNFAAKRMNRNIQRALTGQSVDNI”, the protein production entry is “failed”.

Regarding “MPASVMTDLSAAWAAFEAHDYALAERQAQALLAHPATASGARFMLGYVYAFMDRFDEARASFQALQQQAQKSGDHTAEHRALHQVGMVERMAGNWDAARRCFLEERELLASLPEDPLAASANAYEVATVALHFGDLAGARQEYEKSLVYAQQADDQVAIACAFRGLGDLAQQEKNLLEAQQHWLRARDIFAELEDSEAVNELMTRLNGTEG”, the protein production entry was “failed”.

For the sequence “MHSQASNPSATPEPETPNAAGGKRSVFAVILGNAVEFFDFGVYATFAVMIGHTFFPSDSAFVSLMLSVTAFGVGFIVRPLGAVLIGAYADRVGRKPAMLLTLVMMAVGTGSIAILPSYESIGIAAPILLVLTRLIQGLAWGGEAGPATTYILEAAPAHKRGTYACWQVVAQGVAAMAAGTVGYTLTQVLSPEDLNSWGWRVPFVFGLLVLPIGIYIRRNLAETFHGQGETASTGSLVRQVFGEHRRALVLGLLILSGSTITQYFINYMTTFALTELKLPTSISMLSTLVAGAAMAVCAIAGGMLCDRFGRRTILMAPRVVLLLVLFPALQLMTEHPSPTTFLLTLAVLSGLHGMSGAALIVLLVESFPKAVRSTGFSIVYAFGVAAFGGTAQIIITWLIGTTGNPMSPVGYLLVANLVCLTAAWFAKETRPQAPGRSNPGQRLAEARAR”, the protein production entry is listed as “failed”. In the case of “MQRDVSSCNTYNYGDALYWDARYVQDALSFDWYQCYSSLRPFVRSFVSTSSRVLMVGCGNSLMSEDMVKDGYEDIMNVDISSVAIEMMQTKYASVPQLKYMQMDVRDMSYFEDDSFDTIIDKGTLDSLMCGSDALLSASRMLGEVSRLIKPGGTYFLITYGDPKVRMPHLTRSAYNWKISLYIIPRPGFKRPESCSSSAKSCMEAIPITSEGMLPHDYVLEDPDSHFIYICKKKDEDEEAQLPSYPLMEDVL” it was “failed”; in that of “MAFESAGAGELFLLGRLLFGGVLAFMGLNHFQNAGQMAPYAEAKGLPAPVASVYGSGGLLLVSGVLVILGAYPVIAAGALATFLVASAVMMHNFWAVPDDQMQDEMTQFLKNIALAGGALSLLAVAGTSWPYTVGLSLF”, “failed”; in that of “MNDDKDVVIDQIYYISTDPSATTYPTTFSVSLVDNSVAGRPFFYVVGKSTMRVDRNTTLRVEEDSKLVEKYNETYGKKYLPFPEGTYSFSTNEVTINQGDNFSSDTIFISFSNWDKLSKIDKYLLPVSLKAVDDKGAVSMDRNLIYFIADFSTTNTGYNKPAAWKPLDRTDWDVSFSYAYGYDEAQFGGRLAVDGDVSTTWFTWGVVSAGECWWATTLPAPTHLTGFSLTRQTTFGSSYNVREAKVKVKKEGDTEWTEAGLFRFGSFKGNDPQYAVFIPAVENVKEFRIDIVSPADFTGFAELDLYQLEHHHHHH”, “failed”.
